According to the Immune Epitope Database (IEDB):

Columns and labels:
Test in all cases: IEDB peptide-MHC binding, purified MHC/direct/fluorescence; filed as Kd, often an IC50 or EC50 that approximates it; ≥ and ≤ were set here for values at or beyond the usual limits of such assays
[1] = target: HLA-A*03:01; conditions: source organism: Yellow fever virus
[2] = target: HLA-A*31:01
[3] = target: HLA-B*39:01; conditions: source organism: Yellow fever virus
[4] = target: HLA-B*40:01; conditions: source organism: Yellow fever virus
[5] = target: HLA-B*15:01; conditions: source organism: dengue virus type 4
[6] = target: HLA-B*07:02; conditions: source organism: Yellow fever virus
[7] = target: HLA-B*51:01
[8] = target: HLA-A*01:01; conditions: source organism: dengue virus type 2
[9] = source organism: Yellow fever virus

Sequence LTLKGTSYK has a Kd [1] of 104 nM and a Kd [2, 9] of 518 nM.

GEAMDTISV gave a Kd [3] of no less than 20000 nM and a Kd [4] of no more than 1 nM.

Sequence RTWAYHGSY has a Kd ([2]; source organism: dengue virus type 4) of 37 nM and a Kd [5] of 12 nM.

Work on ERWFVRNPF yielded a Kd [3] of no less than 20000 nM.

CRTAFKPVL was tested, and the Kd [3] was 2060 nM.

For PHAATIRVL, the Kd [3] was 960 nM.

Work on FHERGYVKL yielded a Kd [3] of 35 nM.

In the case of SSARYDVAL, the Kd [3] is reported as 377 nM.

With TKDTNDNNL the Kd [3] was 136 nM.

For MVIFFMSPK, the Kd [1] was 610 nM and the Kd [2, 9] was 1400 nM.

Work on RADEINAIL yielded a Kd [3] of 156 nM.

RMGERQLQK gave a Kd [1] of 340 nM and a Kd [2, 9] of 187 nM.

Sequence VRGGMVAPL has a Kd [3] of 5370 nM.

MPRSIGGPV was tested, and the Kd [6] was 5 nM and the Kd [7, 9] was 858 nM.

KTWAYHGSY gave a Kd [8] of no less than 20000 nM and a Kd ([2]; source organism: dengue virus type 2) of no less than 20000 nM.

In the case of FHKRDMRLL, the Kd [3] is reported as no less than 20000 nM.

FTMRLLSPV gave a Kd ([7]; source organism: dengue virus type 1) of no less than 20000 nM.

IQYVIRAQL gave a Kd [3] of 682 nM.
